{"source": "patent US20040014138A1", "about": "(published 2004)", "binders": {"B1": {"name": "human activated protein C (enzyme)", "chain 1": "ANSFLEELRHSSLERECIEEICDFEEAKEIFQNVDDTLAFWSKHVDGDQCLVLPLEHPCASLCCGHGTCIDGIGSFSCDCRSGWEGRFCQREVSFLNCSLDNGGCTHYCLEEVGWRRCSCAPGYKLGDDLLQCHPAVKFPCGRPWKRMEKKRSHL", "chain 2": "LIDGKMTRRGDSPWQVVLLDSKKKLACGAVLIHPSWVLTAAHCMDESKKLLVRLGEYDLRRWEKWELDLDIKEVFVHPNYSKSTTDNDIALLHLAQPATLSQTIVPICLPDSGLAERELNQAGQETLVTGWGYHSSREKEAKRNRTFVLNFIKIPVVPHNECSEVMSNMVSENMLCAGILGDRQDACEGDSGGPMVASFHGTWFLVGLVSWGEGCGLLHNYGVYTKVSRYLDWIHGHIRDKEAPQKSWAP", "notes": "the whole natural protein is named as one piece; also called APC"}}, "molecular_target": "T1, bovine serum albumin (bovine, UniProt P02769 25-607)", "T1 construct": "Negative control coating protein in the enzyme capture assay; also called BSA", "T1 sequence (P02769 25-607 limits assumed)": "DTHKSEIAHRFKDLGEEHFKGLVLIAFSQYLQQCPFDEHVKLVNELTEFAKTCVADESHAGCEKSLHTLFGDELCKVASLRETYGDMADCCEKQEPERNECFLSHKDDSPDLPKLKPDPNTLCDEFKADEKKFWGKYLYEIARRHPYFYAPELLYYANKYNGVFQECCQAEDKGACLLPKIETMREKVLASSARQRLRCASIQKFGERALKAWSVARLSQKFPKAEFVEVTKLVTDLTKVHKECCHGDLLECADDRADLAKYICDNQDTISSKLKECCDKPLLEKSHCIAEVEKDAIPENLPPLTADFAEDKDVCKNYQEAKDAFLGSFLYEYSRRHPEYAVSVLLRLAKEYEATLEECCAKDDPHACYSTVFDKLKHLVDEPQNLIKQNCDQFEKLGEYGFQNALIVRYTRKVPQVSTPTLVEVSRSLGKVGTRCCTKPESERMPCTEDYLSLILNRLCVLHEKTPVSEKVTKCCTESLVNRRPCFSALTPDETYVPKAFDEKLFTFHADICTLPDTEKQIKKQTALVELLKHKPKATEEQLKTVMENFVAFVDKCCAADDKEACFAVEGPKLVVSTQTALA", "assay": "enzyme capture assay, coated wells, APC-spiked plasma, chromogenic read-out", "method": "As negative controls, microtiter plate wells were coated with either 5 μg/ml HPC4 monoclonal antibody or 1% bovine serum albumin (BSA) in the same buffer. The plates were then blocked for 1 hour at 37° C. or overnight at 4° C. with 200 μl of blocking buffer (coating buffer containing 1% BSA). The solutions were gently removed from the plates by vacuum.\nTo generate a standard curve for the quantitative measurement of APC in plasma, increasing amounts of APC (from 0 to 250 ng/ml) were spiked into normal pooled plasma containing 20 mM Hepes, pH 7.5, 2 units/ml heparin, 20 mM benzamidine, and 10 mM CaCl₂. The spiked plasma (100 μl) were transferred to the plates and incubated at room temperature for 1 hour. The wells were then washed three times with wash buffer (20 mM Hepes, pH 7.5, 150 mM NaCl, 0.05% Tween-20, and 5 mM CaCl₂). The chromogenic activity of APC was determined by the addition of 100 μl of Spectrozyme PCa (1 mM) in 20 mM Hepes, pH 7.5, 150 mM NaCl, 5 mM CaCl₂. The plates were immediately placed at 37° C., and substrate hydrolysis was monitored at 405 nm over time using a Vmax microplate reader (Molecular Devices Corp, Sunnyvale, Calif.). All samples were assayed in duplicates or triplicates.", "data": [{"binder": "B1", "values": [{"measurement": "binding result", "result": "no binding (tested: 1% coating)"}]}]}
